Test results published in patent US20040072168A1, “Novel deoxynucleoside kinase enzyme variants” (priority 2000, published 2004).

How the values were obtained:
[1] = cited from earlier work
[2] = tested on: TK deficient E. coli strain KY895; assay: Determination of LD100 of nucleoside analogues on M9 plates, E. coli KY895 transformed with kinase variant plasmids; assay type: cell-based; conditions: KY895 expressing the variant
Source text: The mutagenized PCR fragments were purified by the PCR Kit from Boehringer Mannhein, cut with BamHI and EcoRI and sub-cloned into the multiple cloning site of the pGEX-2T plasmid vector. The TK deficient E. coli strain KY895 [F tdk-1 ilv] [Igarashi K, Hiraga S & Yura T: A deoxythymidine kinase deficient mutant of Eschericha coli. II. Mapping and transduction studies with phage Φ80; Genetics 1967 57 643-6541, was electro-transformed with the ligation mix, using standard techniques, and plated on LB-ampicillin (100 μg/ml) plates.
Overnight cultures of these colonies were diluted 200-fold in 10% glycerol and 2 μl drops of the dilution were spotted on M9 minimal medium plates [Ausubel F, Brent R, Kingston R E, Moore D D, Seidman J G, Smith J A & Struhl K (Eds.): Short protocols in molecular biology; Wiley, USA, 3rd Edition, 1995, p.1-2] supplemented with 0.2% glucose, 40 μg/ml isoleucine, 40 μg/ml valine, 100 μg/ml ampicillin and with or without nucleoside analogues.
All clones with increased sensitivity towards at least one nucleoside analogue were tested on M9 plates with logarithmic dilution of the nucleoside analogues to determine the lethal dose (LD100) of the nucleoside analogues, at which no growths of bacteria could be seen.
Plates were prepared by mixing the medium with the analogues at the lowest temperature possible, before pouring the plates.

B1: Dm-dNK: wild-type Drosophila melanogaster deoxyribonucleoside kinase (SEQ ID NO: 1) (protein)
chain: MAEAASCARKGTKYAEGTQPFTVLIEGNIGSGKTTYLNHFEKYKNDICLLTEPVEKWRNVNGVNLLELMYKDPKKWAMPFQSYVTLTMLQSHTAPTNKKLKIMERSIFSARYCFVENMRRNGSLEQGMYNTLEEWYKFIEESIHVQADLIIYLRTSPEVAYERIRQRARSEESCVPLKYLQELHELHEDWLIHQRRPQSCKVLVLDADLNLENIGTEYQRSESSIFDAISSNQQPSPVLVSPSKRQRVAR
modifications: Drosophila melanogaster; CDS (1)..(750)
catalytic rate of deoxyribonucleoside phosphorylation, higher than reported for any of the mammalian deoxyribonucleoside kinases ([1]; depending on the substrate): 4-20,000 fold | turnover of thymidine, higher than catalysed by HSV1 thymidine kinase ([1]; thymidine, versus HSV1-TK): 70 fold | LD100 araC ([2]; lethal dose (no growth of bacteria) of araC, range 3.16-1000 μM): 1000 µM | LD100 2CdA ([2]; lethal dose of 2CdA, range 0.0316-100 μM, second line of last column): 100 µM | LD100 AZT ([2]; lethal dose of AZT, range 0.01-100 μM): 100 µM | LD100 araA ([2]; lethal dose of araA, range 10-1000 μM, third line of last column): >1000 µM | LD100 ddA ([2]; lethal dose of ddA, range 0.316-31.6 μM): 31.6 µM | LD100 ddC ([2]; lethal dose of ddC, range 10-3500 μM, first line of last column): >3500 µM
